Measured values: the nanobody polyreactivity screen of Harvey et al. (2022)

Assay: yeast display, Sf9 membrane polyspecificity reagent, FACS + sequencing; frameworks hold sequencing errors
How it was run: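 Polyreactivity labels are assigned by the sorting gate from which each nanobody was recovered. The gates were low and high (top ~1%), set on anti-HA fluorescence for expression and streptavidin fluorescence for reagent binding. Before sorting, galactose-induced (36–48 hours) yeast display cells were stained for 1 hour at 4 °C with 10% biotinylated, detergent-solubilized Sf9 membrane reagent.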

| Sequence | polyreactivity (PSR sort gate) |
| --- | --- |
| QVQLVESGGGLVQAGGSLRLSCAASGFNFGGYPMGWYRQAPGKERELVADISKRGGSTFYADSVKGRFTISRDNAKNTVYLQMNSLKPEDTAVYYCATRFFYPYWGVYEYYYWGQGTQVTVSS | high polyreactivity |
| QVQLVESGVGLVQAGGSLRLSCAASGLIIYAYVMGWYRQAPGKERELVATISRSGARTHYADSVKGRFTISRDNAKNTVYLQMNSLKPEDTAVYYCAADVYLSSYEKYGYWGQGTQVTVSS | high polyreactivity |
| QVQHVESVGGLVQAGGSLRLSCAASGSIFGRYAMGWYRHAPGKERELVAAISWSGGSTYYADSVKGRFTISRDNAKNTVYLQMNSLKPEDTAVYYCAATTYSGFDYWGQGTQVTVSS | high polyreactivity |
| QVQLEESGGGVVQAGGSLRLSCAASGSTFLQYAMGWYRQATGKERELVAAISWRAGSTYYADSVKGRFTISRDTAQNTVYLQMNSLKPEDTAVYYCAADRNGWRYELDDYDYWGQGTQVTVSS | low polyreactivity |
| QVQLVESGGGLVQAGGSLRLTCAASGSIFPGYAMGWYRQAPGKDRELVATITASGGSTYYADSVKGRFTISRDNAKNTVFLQMISLKPEDTAVYDCAKDRYWYFRRRGQYDYWGQGTQVTVSS | high polyreactivity |
| QVQLVESGGGLVQAGGSLRLSCAASGITFPLYVMGWSRQAPGKERELVAAISASGGSTYADSVKGRFTISRDNAKNTVYLQMNSLKPEDTAVYYCNADVYVGYEYDYWGQGTQVTVSS | low polyreactivity |
| QVQLEESVGGLVQAGGSLRLSCAASGSISYKYLMGWYRQAPGKEREFVASMTRIGGSTYYADSVKGRFTISRDNAKNTVYLQMNSLNAEDTAVYYCAADYAIGRLRRGDDYWGQGTQVTVSS | low polyreactivity |
| QVQLVESGGGLVQAGGSLRLSCAASGNIFESYGMGWYRQAPGKERELVATINTSSGSTYYADSVKGRFTISRDNAKNSVYVQMNSLKPEDTAVYYCAAEWYPYPWGYGYWGQGTQVTVSS | low polyreactivity |
| QVQLVESGGGLVQAGGSLRLSCAASVYTFYWNAMGWYRQAPGKEREFVASFSGTSTYYADSVKGRFTISRDNAKNTVYLQMNSLKPEDTAVYYCNARLTLGPRKYEYWGQGTQVTVSS | low polyreactivity |
| QVQLVESGGGLVQAGGSLRLSCAASGRTFYYNAMGWYRQAPGKERELVAAITSRGTTYYADSVKGRFTISRDNAKNTVYLQMNSLKPEDTAVYYCAALALYRAQGNLDYWGQGTQVTVSS | high polyreactivity |
| QVQLVESGGGLVQAGGSLRLSCAASGSIFTYYVMGWYRQAPGKERELVAGITGGGSTNYADSVKGRFTISRDNAKNTVYLQMNSLKPEDTAVYYCNAYEYLSAGYDYWGQGTQVTVSS | low polyreactivity |
| QVQLVESGGGLVQAGGSLRLSCAASGNIFESYCMGWYRQAPGKERELVATINTSSGSTYYADSVKGRFTISRDTAKNTVYLQMNSLKPEDTAVYYCAAEWYPYPWGYGYWGQGTQVTVSS | low polyreactivity |
| QVQLVESGGGLVQAGGSLRLSCAASGSIFGVNYMGWYRQAPGKERELVAGLSSSGGSTYYADSVKGRFTISRDNAKNTVYLQMNSLKPEDTAVYDCAATQSRYYSDDPYYYWGQGTQVTVSS | low polyreactivity |
| QVQLVESGGGLVQAGGSLLISCAASGITFDGYAMGWYRHAPGKESELVARITATGFRTYYADSVKGRFTISRDYAKNTVYLKMNSLKPEDTAVYYCPRTTSCVQNVRKYYYWGQGTQVTVSS | high polyreactivity |
| QVQLVESGGGLVQAGGSLRLSCAASGRTFTYNVMGWYRQAPGKERELVAAITSGGTNYADSVKGRFTISRDNAKNTVYLQMNSLKPEDTAVYYCATDYYDDVTIGYDYWGQGTQVTVSS | low polyreactivity |
| QVQLVESGGGLVQAGGSLRLSCAASGFTFYPYTMGWYRQAPGKERELVAAISSSGGSTYYADSVKGRFTISRDNAMNTVYLQMNSLKPEDTAVYYCATRSWGPYYYGYNHWGQGSQVTVSS | high polyreactivity |

| Sequence | polyreactivity (PSR sort gate) |
| --- | --- |
| QVQLVESGGGLIQAGGSLRLSCAASGSILSDYVMAWYRQAPGKERELVAAITNDDSTNYADSVKGRFTISRDNAKNTVYLQMNSLKPEETAVYYCAAEWLVVYYISTGESYKVEFDYCGQGTQVTVSS | low polyreactivity |
| QVQLVESGGGLVQAGGSLRLSCAASGRIFGVYAMGWYRQAAWKERELVAAITRGASTYYADSVKGRFTISRDNAKNTVYLQMNSLKPEDPAVYYCAVSQYRGIYRKYDYWGQGTQVTVSS | high polyreactivity |
| QVQLVESGGGIVQAGVSLRLSCAASGSTFWDNDMGWYRPAPGKERELVAVISWDDGSTYYADSVKGRFTISRDNAKNTVYLQMNSLKPEDTAVYYCAADAYYALFPSWTVGDCPYYYWGQGTQVTVSS | high polyreactivity |
| QVQLVESGGGLVQAGGILRLICAASGSTFSTYAMGWYRPAPGKERELVAAIRFSGGTTYYADSVKGRFTISRDNAKNSVYLQMYCLKPEDTAVYYCAAVYISRNFFGRARGDYWGQGTEVTVSS | low polyreactivity |
| QVQLVESGGGLVQAGGSLRISCAASGFIFSRNAMGWYRQAPGKERELVAAISAGGGSTYYADSVKGRFTISRDNAKNTVYLQMNSLKPEDSAVYSCAAYFRSQFGYWGQGTQVTVSS | high polyreactivity |
| QVQLVESGGGLVQAGGSLRLSCAASGFTFIGNAMGWYRQAPGKERELVAAISSSGGRTYYADSVKGRFTISRDNAKNTVDLQMNSLKPEDTAVYYCATRQYRGVYYWGQGTQVTVSS | high polyreactivity |
| QVQIEESGGVLVQAGGSLRLSCAASGSIFQPYALGWYRQAPGKERELVAAISSSGGSTTYADSVKGRFTISRDIAKNTVYLQMNSLKPEDTAVYYCAADSADDMGYWGQGTQVTVSS | low polyreactivity |
| QVQLVESGGGLVQAGGSLRLSCAASGSIFSVYARGSYRQAPGKERELVAGITRGGSTYADSVKGRFTISRDNAKNPVYLQMNSLKPEDTAVYYCNAQTRIVKDRLRSDYWGQGTQVTVSS | high polyreactivity |
| QVQLVESGGGLVQAGGSLRLSCAASGRTQSRYTMGWYRQAPGKERELVAAISTSGSTYYADSVKGRFTISRDNAKNTVYLQMNSLKPEDTAVYYCNAVRRYLQYATGYDYWGQGTQVTVSS | high polyreactivity |
| QVQLVESGGCLVQAGGSLRLSCAASGFTFDIYAMGWYRQAPGKERELVATISRSGGTTYYADSVKGRFTISRDNAKNTVYLQMNCLKPEDTAVYYCAAAAYYYRYRYRMYYWGQGTQVTVSS | high polyreactivity |
| QVQLVESGGGLVQAGGSIRLSCAASRFTFGPYAMGWYRQAHVKERELVAAITIRGGSPYADSVKGRFTISRDNAKNTVYLQMNSLKPEDTAVYYCATVRALEYNYWGQGTQVTVSS | low polyreactivity |
| QVQLVESGGGLVQAGGSLRLSCAASGSTFSPNVMGWYRQAPGKERELVAAISSSTGSTNYADSVKGRFTISRDNAKNTVYLQMNSLKPEDTAVDYCAVDPYVHWTTKLYDYWGQGTLVTVSS | low polyreactivity |
| QVQLVESGGGLVQAGGSLRLSCAASGYTFLHYAMGWYRQAPGKERELVAAISGSGGRTYYADSVKGRFTISRDNAKNTVYLQMNSLKPEDTAVYYCAAPYSSRNYYYWGQGTQVTVSS | high polyreactivity |
| QVQLVESGGGLVQAGGRLRLSCAASGSTFGINAMGWYRQAPGKERELVAAITSTGRTYYADSVKGRFTISRDNAKNTVYLQMNSLKPEDTAVYYCAAVWRYKGLLLPSYYYWGQGTQVTVSS | high polyreactivity |
| QVQLVESGGGIVQAGGSLRLSCAASAIIFLDNPMGWSRQAPGKERELVADITSSGGSTYYADSVKGRFTISRDNAKNTVSLQMNSLKPEDTAVYYCAKYVYGKFDGVRFSYDYWGQGTQVTVSS | low polyreactivity |
| QVQLVESGAGLVQAGGSILLICAASGLTFYKNAMGWYRQAPAKERELVAVISSSGGSTYYADSVKGRFTISRDNAKNTVYLQMNSLKPEDTAVYYCARDLFTEYRWGLLTYDYWGQGTQVTVSS | low polyreactivity |
